# System: K4 kissing-loop RNA reporter
# Experiment: apparent KD of K4 kissing-loop reporter; higher = weaker reporter binding
# Conditions: Eterna round: R107; input ligand: theophylline 20 uM
# Experimental: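 RNA-MaP round R107: designed RNA switches with theophylline, tryptophan, arginine or FMN aptamers are transcribed on-chip within common flanks. They are titrated with a labelled K4 kissing-loop RNA reporter in RNA-MaP buffer (100 mM Tris pH 7.5, 80 mM KCl, 4 mM MgCl2), without ligand or with the indicated ligand. Median apparent KD per design.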
# 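Further: bound reporter read as fluorescence of individual clusters on recovered sequencing chips by microscopy, with normalized cluster intensities fitted with a binding model.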
row,Sequence,apparent KD of K4 kissing-loop reporter
1,AAUUUAUAUUUGUUCUUCAAAUGUUCAGAAGGAGCGUGAAUUAUCACAGGUAGGUCGCUGGGCUAGUGAUGUUGGCUAUAUACUA [whbob_Ex_Arginine_A_2t126],211 nM
2,GGCAGUGAUGUUGCCUAAGCAACGCAUGCGGAGGAUAUUCGUUCGGGAAGAAGGCCGCAGCGUUCUCUCGAGUGAUGUUCGAGUA [Same State FMN A GF 21],171 nM
3,GUAUCAGUGAUGUUGGUAGGCGAGCGGGAUACCAGCCAAGACUCAGGCCCUUGGCAGCCCACAUAUCCCACGUAGAUAGUAGCUC [Same State - Theophylline A (Freestyle 15)],139 nM
4,UUGUAAAAGUCGGCCGCCACUCCGGGCCCUAUAAAUGGGCGCAGUGAUGUUGCGGCUAGGCCUCUGAGGACCGGGACUUUAUAGC [Xeismaarbe],66.8 nM
5,ACGUCCGGAUUGAUCGUGGGCAUGGUCGAUACCAGUAGUUUAAUCUACCCUUGGCAGCGACAUGAGUGAUGUUCAUGUGCGAUGA [KL-XTheo-A7 #analogue],350 nM
6,UUUGGAUUGCGCGAAGAGUGCAAGCGCCAACGAGGACCGGUACGGCCGCCACUCGCGGAGGAGUCCAGUGAUGUUGGACGGCCCG [Laraones],290 nM
7,AAGGCAAUUCGAGGAUAUCACAUACACUCCUUGAAUCAAGGAGUGAUGUUCCUUGAAGUGUAUGCAUGAGAAGGCGAAUUGCCUU [#05 K4 FMN B Same State],99.3 nM
8,UUUUGGUACUGAGGAUAUUCGAAGAAAUAUAGUGAUGUUAUAUAAGGAGGAGGAGGGAGGGAGGAAGGAGAAGGCAGAAGAGGAG [ExFMNB.G],225 nM
9,UCUGGAGUAUAUGAUACCAGCAGUGAGAGACAGGAAGUAUAGUGAUGUUAUAUGAGAGAAUGCCCUUGGCAGCGUGUGCGGUGGG [SSTheophylB.R],106 nM
10,GUAUGUGAUGGAAACAUCGCAUACACUGAUACCAGUAUCGAUAGAUACCCUUGGCAGCAGAAAACUGCAAUUGGAGUGAUGUUCC [Ex Theophylline A K4 1],216 nM
11,UGUCUUCAGUGAUGUUGAUGACAACACUUAAAGGAUAUGCGAGAGAGCAGAAGGUUAAACAACGCGCAAAUCAAGGAGGGUCUAG [theeternabot_exclusion_KL_FMN_A_30],196 nM

# Same assay, conditions: Eterna round: R107; input ligand: tryptophan 2.4 mM
row,Sequence,apparent KD of K4 kissing-loop reporter
1,UAGCGAUGAAGUGAUACCAGAGAGUGAUGUUCUUUUUUUAUUCAGAAUACUGUCGCCUUGCUCCCUUGGCAGCACGCAGGCGCAG [theeternabot_exclusion_KL_Theo_B_18],171 nM
2,AAGGGCUAGGCGGCCGCCACUGGUCGUGAACACAUACGAGCCAGUGAUGUUGGUAUUGUGUGCGGCAGGACCGGGCCUAGCCGAA [Exclusion - Tryptophan B (Freestyle 24)],462 nM
3,UGAUAGGACAGAAGGAGCGGUAGUGAUGUUACCAAAAGGAUAAGGUGUCAAAAGACACCCUGCCAGGUAGGUCGCUGUCCUAUCU,87 nM
4,UAGGAGUGAUGUUCCAUAUCUUGAGCCGAAGGAGCGCCUUUAUAGGCAGGUAGGUCGCGGCAGAAGGUACCAGUGAUGUUGGAAA [Same State Arginine A GF6],135 nM
5,UUACCAAGUGAUGUUUGGAAAUAUCCUAGGCAGGAUAUGCGGAAACGCAGAAGGGCCACCUUAUAGUGAAGGAAACUUCGCUAUU [Ex FMN A 2],142 nM
6,ACGCUAGCUACCGAAAGGUAGCUAGCGAGUGAGGAUAUGUGGAAACACAGAAGGCACAGCGCAGUGAUGUUGUGCGGCGAAAGCC [whbob_SS_FMNA__2th166],803 nM
7,UUCUGCAUCUCGGCCGCCACUCACUAGUGAUGUUAGUAAGGAGCGACUAGACAUGUCCCGUUGUUGAGGACCGGGAGAGGCUCUU [#14 K4 Tryptophan B Exclusion],170 nM
8,UCUUGUUCAUAGUGAUGUUAUGAGCUUAGAAAGGAUAUGAUCAACAUCAGAAGGUUCAAGGAUUCCCGACUCCAACUUCGGUUUC [theeternabot_sameState_KL_FMN_A_43],332 nM
9,CUUGAUGGAAACAUCGAGUAGAUUACUGAUACCAGUAUCGAUAGAUACCCUUGGCAGCAGAAUCAGUAAUCACGAGUGAUGUUCG [Ex Theophylline A K4 7],485 nM
10,GCUCAGGAGUGAUGUUCCAAGUGAUGUUAACGAGGACCGGUACGGCCGCCACUCGAUACGGCCGGACCGUAGGAUAAACUAGAGC [Same State - Tryptophan A (Freestyle 9)],244 nM
11,UGGAGUUGACGAAAAGUCAACUCCUGAGAUACCAGUGACGAAAGUCACCCUUGGCAGCUCACUGCCAGUGAUGUUGGUAAAUAAA [#OpenEnded 3],81.8 nM
12,AGGAUCCGUCGACAAAAGUCGACAUAAACCAAGGAUAUGACGAAAGUCAGAAGGUGGUCAUAAGGCCAGUGAUGUUGGUGGAUCC [FmnA 12 #SwitchBubble #K4Late],349 nM
13,UUCGUAGUAGGAAACUAUUACGAAAAGGAAGGAGCGGCGAAGAAGCCAGGUAGGUCGCCUAUUGACAGUGAUGUUGUUAUAUAGA [#10],162 nM
14,GAUUUAGAGGCGGCCGCCACUAGUGAUGUUAGUGAUGUUUGAUACUGAAUAUAUCUGCGUUUAGAUAGGACCGGGCCAGAUGGAG [qzwqmullin],177 nM
15,UGAUAGGACAGAAGGAGCGGCAGUGAUGUUGCCAAAAGGUUAAGGUGUCAAAAGACACCCUGCCAGGUAGGUCGCUGUCCUAUCU,208 nM
16,GCAGUCAAUCGACCACGAAAGUGGAUGGAUACCAGAGUCGAAAGACUCCCUUGGCAGCCAGUGAUGUUGGAAGACUGCAAUAAAA [#SwitchBubble 16 #K4Late],468 nM
